To fix the notation:
T1: CMG2 38-218 (Homo sapiens, UniProt P58335)
T1 chain: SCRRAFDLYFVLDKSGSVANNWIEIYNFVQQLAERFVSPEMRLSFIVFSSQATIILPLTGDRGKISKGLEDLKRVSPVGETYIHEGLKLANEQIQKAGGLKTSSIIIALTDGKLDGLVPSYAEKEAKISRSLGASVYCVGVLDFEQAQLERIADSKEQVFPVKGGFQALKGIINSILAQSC

B1: CLR(4-nitro-F)T (peptide)
chain: CLR[Phe(4-NO2)]T
B2: CLR(4-cyano-F)T (peptide)
chain: CLR[Phe(4-CN)]T
B3: CLR(phenylglycine)T (peptide)
chain: CLR[Phg]T
B4: CLR(3,5-dibromo-Y)T (peptide)
chain: CLR[Tyr(3,5-Br2)]T
B5: CLR(4-fluoro-F)T (peptide)
chain: CLR[Phe(4-F)]T
B6: CLR(3-nitro-Y)T (peptide)
chain: CLR[Tyr(3-NO2)]T
B7: CLR(homophenylalanine)T (peptide)
chain: CLR[hPhe]T
B8: CLR(4-Cl-F)T (peptide)
chain: CLR[Phe(4-Cl)]T
B9: CLR(D-Phe)T (peptide)
chain: CLR[dF]T
B10: CLRPT (peptide)
chain: CLRPT

Square brackets hold non-standard residues; d marks the D form. Ends that are not written are not given here. Tyr(3-NO2) = N[C@@H](Cc1ccc(O)c([N+](=O)[O-])c1)C(=O)O; Phe(4-NO2) = N[C@@H](Cc1ccc([N+](=O)[O-])cc1)C(=O)O; Tyr(3,5-Br2) = N[C@@H](Cc1cc(Br)c(O)c(Br)c1)C(=O)O; Phe(4-CN) = N#Cc1ccc(C[C@H](N)C(=O)O)cc1; Phe(4-Cl) = N[C@@H](Cc1ccc(Cl)cc1)C(=O)O; Phe(4-F) = N[C@@H](Cc1ccc(F)cc1)C(=O)O; hPhe = N[C@@H](CCc1ccccc1)C(=O)O; Phg = N[C@H](C(=O)O)c1ccccc1

The first experiment deals with T1, CMG2 38-218. Description: microscale thermophoresis. (In general: MST reads how a fluorescent partner responds to local heating, with and without ligand.)
Broadly, the Kd is a measure of binding affinity in units of concentration. In the case of B1, the Kd is 36.2 µM.

Molecule B2 returned an equilibrium dissociation constant (Kd) of 61.4 µM.

B3 showed a Kd of 59.6 µM.

Molecule B4 gave an equilibrium dissociation constant (Kd) of 60 µM.

B5 had a Kd of 49.9 µM.

In the case of B6, the equilibrium dissociation constant (Kd) is 112 µM.

Molecule B7 registered a Kd of 74 µM.

B8 came in with a dissociation constant (Kd) of 14 µM.

B9: binding was put at a Kd of 31 µM.

The target in another experiment is T1, CMG2 38-218. In words: sandwich ELISA (competition with His6-PA 488-735). For orientation: In an ELISA, binding on a coated surface is turned into a signal by an enzyme label.
The IC50 is the concentration at which inhibition is half-maximal. The molecule B10 returned a concentration for half-maximal inhibition (IC50) of 153 µM.

The values above are taken from article PMC5465072 (2017).
